Results taken from patent publication US8008452B2, “Phosphorylated Ndr kinase” (Novartis Forschungesstiftung, Zweigniederlassung Friedrich …, priority 2002, dated 2011).

Tests used:
GST-NDR1 [1] = molecular target: T1, GST-NDR1 (Homo sapiens, UniProt Q15208); assay: GST-NDR1 in vitro autophosphorylation, incorporated 32P by Cerenkov counting; assay type: biochemical; conditions: in vitro
T1 construct: made in house; host or cells: E. coli BL21-DE3-pRep4
Description: (§1) BL21-DE3-pRep4 E. coli strain was transformed with the pGEX-2T_NDR1 wild type or mutant plasmids. BL21-DE3 is a protease-deficient E. coli strain and pRep4 is a Laclq repressor-bearing plasmid both available commercially. Optionally, if desired, an E. coli strain comprising GroESL can be used, which expresses a chaperone protein that stabilizes the kinase. Mid-logarithmic phase cells were induced with 0.5 mM isopropyl beta-D-thiogalactopyranoside (IPTG) for 4 hours at 30° C. Bacteria were lysed using a French press in the presence of 1 mg/ml lysosyme, and the fusion proteins were purified on glutathione-agarose (Amersham Pharmacia Biotech) as described by the manufacturers. Recombinant proteins were assayed for kinase activity as described below and autophosphorylation was determined after SDS-PAGE separation either by Cerenkov counting or by exposure to a PhosphorImager screen followed by analysis with ImageQuant software (Molecular Dynamics).
(§2) In brief, 1 microgram of purified GST-NDR1 (in solution ˜0.5 microM) wild type, kinase dead (K118A), and alanine mutants of phosphorylation residues Thr74, Ser281, and Thr444 were autophosphorylated for 2 hours in vitro without further additions or in the presence of 1 mM CaCl2 and 10 microM bovine S100B. Proteins were visualized on SDS gels using Coomassie Blue R-350 stained SDS-PAGE gel, and [gamma-^32P]ATP-labelled proteins were visualized by autoradiography of the gels developed on a Phosphorimager screen. The amount of incorporated ^32P was quantified by Cerenkov counting.

GST-NDR1 [2] = assay: as above; assay type: biochemical, human; conditions: GST-NDR1 variant
Description: as §1, §2

GST-NDR1 [3] = assay: GST-NDR1 kinase assay (peptide kinase assay); assay type: biochemical, human; parameters: Specific activity of GST-NDR1 variants, CTRL / Specific activity of GST-NDR1 variants, −S100B / Specific activity of GST-NDR1 variants, +S100B: unit not given here
Description: 1 microgram of purified recombinant GST-NDR1 wild type and mutants (without further treatment or autophosphorylated for 2 h in the presence or absence of 1 mM CaCl2 and […] (Sigma)) were assayed in 20 microliter of reaction mixture containing 20 mM Tris-HCl pH 7.5, 10 mM MgCl2, 1 mM DTT, 100 microM [gamma-^32P]ATP (˜0.5 microCi/microliter), and 1 mM NDR1 substrate peptide ([…]; SEQ ID NO:22). After 30 mins incubation at 30° C., reactions were stopped with 50 mM EDTA, and 10 microliters of reaction mixture were spotted onto 2 cm^2 squares of P81 phosphocellulose paper (Whatman). These were subsequently washed for 4×5 min and 3×20 min in 1% phosphoric acid and once in acetone before counting in a liquid scintillation counter. One unit of NDR1 activity was defined as the amount which catalyses the phosphorylation of 1 nmol peptide substrate in 1 min.
Specific activity of GST-NDR1 mutants was also measured by a peptide kinase assay as described above. For this purpose, 1 microgram of purified GST-NDR1 wild type and alanine mutants were left without further treatment or autophosphorylated for 2 h in the presence or absence of 1 mM CaCl2 and […].

HA-NDR1 = HA-NDR1 kinase assay on 12CA5 immunoprecipitates from transfected, treated COS-1 cells; assay type: cell-based, human; parameters: kinase activity of HA-NDR1 variants, −OA: unit not given here; conditions: COS-1 cells
Description: In some experiments, the cells were treated for 60 min with 1 microM okadaic acid in 0.1% N,N-dimethylformamide (DMF) (Alexis Corp.), 50 microM BAPTA-AM (1,2-bis (o-aminophenoxy) ethane-N,N,N′,N′-tetraacetic acid tetra (acetoxy-methyl)ester) in 0.1% diimethylsulfoxide (DMSO; Sigma), or 20 microM thapsigargin in 0.1% DMSO (Alomone) 24 hours after transfection.
Transfected and treated COS-1 cells were washed once with ice-cold PBS, and harvested by rubber policeman in 1 ml ice-cold PBS containing 1 mM Na3VO4 and 20 mM beta-glycerophosphate before lysis in 500 microliters of IP buffer (20 mM Tris-HCl pH 8.0, 150 mM NaCl, 1% Nonidet P-40, 10% glycerol, 1 mM Na3VO4, 20 mM beta-glycerolphosphate, 1 microM microcystin-LR, 50 mM NaF, 0.5 mM PMSF, 4 microM leupeptin, 1 mM benzamidine, and 1 tablet/10 ml IP of Complete protease inhibitors (Roche)). Lysates were centrifuged at 20 000 g for 20 min and triplicate aliquots (200 microg) of supernatant were precleared with protein A-Sepharose (Amersham Pharmacia Biotech) for 60 min and mixed subsequently for 3 h at 4° C. with 12CA5 antibody prebound to protein A-Sepharose (˜1 microg antibody bound to 2 microl beads). The beads were then washed twice with IP buffer, once for 10 min with IP buffer containing 1 M NaCl, once again for 10 min with IP buffer, and finally twice with 20 mM Tris-HCl pH 7.5 containing 4 microM leupeptin and 1 mM benzamidine. Thereafter, beads were resuspended in 30 microliters buffer containing 20 mM Tris-HCl pH 7.5, 10 mM MgCl2, 1 mM DTT, 100 microM [gamma-^32P]ATP (˜0.1 microCi/microliter), 1 microM cAMP-dependent protein kinase inhibitor peptide PKI (Bachem), 4 microM leupeptin, 1 mM benzamidine, 1 microM microcystin-LR, and 1 mM NDR1 substrate peptide ([…]). After 60 min incubation at 30° C., 15 microliters of supernatant were removed, and phosphate incorporation into the substrate peptide determined as described for GST-NDR1 above.
COS-1 cells expressing either wild type HA-NDR1 or the indicated mutants were treated for 1 h with 1 microM okadaic acid or with solvent alone. HA-tagged NDR kinase variants were then immunoprecipitated (out of 100 microgram of detergent extracts) with 12CA5 monoclonal antibody and assayed for kinase activity by a peptide kinase assay as described above.
Mock-transfected or HA-NDR1-expressing COS-1 cells were treated for 1 h with […], 50 microM BAPTA-AM, and […] or with solvent (0.1% DMF or 0.1% DMSO) alone. 12CA5 immunoprecipitates (out of 100 microgram protein extract) were then assayed using the peptide kinase assay for NDR1 kinase activity.
To test whether hMOB1 plays a role in NDR activation, myc-hMOB1 or the empty vector was cotransfected with HA-NDR1 in COS1 cells and treated with OA. 12CA5 immunoprecipitates were then assayed using the peptide kinase assay for HA-NDR kinase activity. […] GST-MOB and GST respectively was added to immunoprecipitated HA-NDR and kinase reaction were performed. The reactions were resolved on a 10% SDS PAGE and the radioactivity visualised by using a phosphoimager.

T1 sequence (Q15208 2-465): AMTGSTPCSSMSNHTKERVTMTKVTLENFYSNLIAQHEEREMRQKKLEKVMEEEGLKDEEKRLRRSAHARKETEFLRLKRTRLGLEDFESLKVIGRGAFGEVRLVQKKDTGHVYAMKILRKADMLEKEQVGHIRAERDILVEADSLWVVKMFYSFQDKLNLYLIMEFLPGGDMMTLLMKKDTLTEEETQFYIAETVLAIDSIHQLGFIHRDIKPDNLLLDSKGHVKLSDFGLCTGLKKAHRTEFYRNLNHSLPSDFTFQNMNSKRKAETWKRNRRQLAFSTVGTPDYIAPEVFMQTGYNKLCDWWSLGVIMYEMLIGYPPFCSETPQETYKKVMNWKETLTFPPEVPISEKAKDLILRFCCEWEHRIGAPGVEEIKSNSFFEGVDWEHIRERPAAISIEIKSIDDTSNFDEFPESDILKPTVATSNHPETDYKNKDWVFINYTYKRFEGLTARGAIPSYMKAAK

WT: human NDR1 wild type; GST fusion in the 2nd table, the 3rd table, HA-tagged in the 4th table
autophosphorylation of wild-type GST-NDR1 in vitro (GST-NDR1 [1]): up to 0.4 pmol ATP/pmol GST-NDR1
amount of incorporated 32P (autophosphorylation), −S100B (GST-NDR1 [2]; 1 microgram, autophosphorylated 2 hours without further additions, pmol ATP/pmol GST-NDR1): 0.1688
amount of incorporated 32P (autophosphorylation), +S100B (GST-NDR1 [2]; 2 hours in the presence of 1 mM CaCl2 and 10 microM bovine S100B, in pmol ATP/pmol GST-NDR1): 0.3512
Specific activity of GST-NDR1 variants, −S100B (GST-NDR1 [3]; autophosphorylated 2 h in the absence of CaCl2 and S100B): 4.106
Specific activity of GST-NDR1 variants, +S100B (GST-NDR1 [3]; autophosphorylated 2 h in the presence of 1 mM CaCl2 and 10 mM bovine S100B): 21.348
Specific activity of GST-NDR1 variants, CTRL (GST-NDR1 [3]; left without further treatment): 1
kinase activity of HA-NDR1 variants, +OA (HA-NDR1; 1 microM okadaic acid 1 h): 10.8852
kinase activity of HA-NDR1 variants, −OA (HA-NDR1; solvent alone 1 h): 0.3532
